Tests used:
Assay in all cases: BLI; glycopeptides immobilized via biotin on a streptavidin biosensor; series of 2-fold dilutions of antibody
[1] = target: H1 glycopeptide (peptide 1)
[2] = target: H1 mutant with IGDIR changed to IAAIA (peptide 5)
[3] = target: H1 mutant without the glycan at the first of the three glycosylation sites (peptide 3)
[4] = target: H1 mutant without the glycans at the second and third glycosylation sites (peptide 4)
[5] = target: H22 glycopeptide (peptide 2)
[6] = target: L1 glycopeptide (peptide 8)
[7] = target: acyclic H1 variant (peptide 7)
[8] = target: random scrambled version of the H1 sequence containing three glycans and cyclization (peptide 6)

B1: PGT128 (antibody, V domains shown)
VH: QPQLQESGPTLVEASETLSLTCAVSGDSTAACNSFWGWVRQPPGKGLEWVGSLSHCASYWNRGWTYHNPSLKSRLTLALDTPKNLVFLKLNSVTAADTATYYCARFGGEVLRYTDWPKPAWVDLWGRGTLVTVSS
VL: QSALTQPPSASGSPGQSITISCTGTSNNFVSWYQQHAGKAPKLVIYDVNKRPSGVPDRFSGSKSGNTASLTVSGLQTDDEAVYYCGSLVGNWDVIFGGGTKLTVL
Kd [1]: 0.52 nM | fold decrease in binding against H1 (peptide 1) [2]: 26 fold | fold loss of recognition against H1 (peptide 1) [3]: 2 fold | fold decrease in binding against H1 (peptide 1) [4]: 40 fold | Kd [5]: 16.9 nM | Kd [6]: 2.37 nM | Kd [7]: 90 nM | Kd [8]: 251 nM

Source: paper PMC12291119, “In Vitro Selection of Cyclized, Glycosylated Peptide Antigens That Tightly Bind HIV High Mannose Patch Antibodies” (ACS Central Science, 2025)
